Measurements reported in US20230078601A1 (CLEVELAND CLINIC FOUNDATION, published 2023).

Tests used:
[1] = molecular target: T1, p21-36; assay: SPOT peptide array on cellulose membrane, 4D12G1 at 1.0 µg/ml, chemiluminescence
T1 construct: SPOT array peptide on cellulose membrane; also called AMHR2-ED 21-36 16-mer peptide
T1 peptide: TLGELLDTGTELPRAI
Procedure: (§1) The AMHR2-ED binding sequence of the 4D12G1 mAb and the critical AMHR2-ED residues for such binding were confirmed by SPOT peptide arrays. Peptides spanning the AMHR2-ED 9-40 immunoreactive region and ranging from 4-16-mers in length were synthesized >90% pure on cellulose membranes (JPT Peptide Technologies, Berlin, Germany), treated overnight with blocking buffer (Thermo Fisher), followed by treatment with the 4D12G1 mAb at 1.0 μg/ml for 3 hours at room temperature, followed by three washes with PBS containing 0.01% Tween-20 (Bio-Rad). The membranes were then treated with a 1:10,000 dilution of an HRP-conjugated rabbit anti-mouse IgG (MilliporeSigma) followed by three washes with PBS containing 0.01% Tween-20 (Bio-Rad). Bound antibody was detected using the HyGLO chemiluminescence system (Thomas Scientific).
(§2) An overlapping series of 16-mer peptides spanning the entire 132 amino acid sequence of human AMHR2-ED (FIG. 3A) with moving single amino acid shifts were plated for direct ELISA testing using the 4D12G1 mAb as primary antibody. […] To determine amino acids recognized by the 4D12G1 mAb, an overlapping series of peptides spanning the immunoreactive sequence comprising AMHR2-ED 13-30 were synthesized with alanine substitutions at each N-terminal residue or with glycine substitutions for any native N-terminal alanine. These peptides were used in competitive ELISAs to determine which residues inhibit binding of the 4D12G1 mAb with solid phase rhAMHR2-ED. […] To determine the minimal AMHR2-ED sequence involved in the binding of the 4D12G1 mAb, SPOT peptide arrays were generated spanning the immunoreactive region of AMHR2-ED. Peptides ranging from 4-16-mers in length were immobilized on cellulose membranes and treated with the 4D12G1 mAb. Bound antibody was detected by chemiluminescence.

[2] = molecular target: T2, p20-26; assay: as above
T2 construct: SPOT array peptide on cellulose membrane; residues 20-26 of AMHR2-ED; also called AMHR2-ED 20-26 7-mer peptide; KTLGELL
T2 peptide: KTLGELL
Procedure: as §1, §2

[3] = molecular target: T3, p20-35; assay: as above
T3 construct: SPOT array peptide on cellulose membrane; also called AMHR2-ED 20-35 16-mer peptide
T3 peptide: KTLGELLDTGTELPRA
Procedure: as §1, §2

[4] = molecular target: T4, p22-37; assay: as above
T4 construct: SPOT array peptide on cellulose membrane; also called AMHR2-ED 22-37 16-mer peptide
T4 peptide: LGELLDTGTELPRAIR
Procedure: as §1, §2

[5] = molecular target: T5, mouse AMHR2 (in lysate of a normal young C57BL/6 female mouse ovary) (mouse, UniProt Q8K592 16-568, limits assumed); assay: Western blot of mouse ovary lysate
T5 construct: Denatured ovary lysate on a Western blot; also called mouse AMHR2-ED
T5 sequence (looked up): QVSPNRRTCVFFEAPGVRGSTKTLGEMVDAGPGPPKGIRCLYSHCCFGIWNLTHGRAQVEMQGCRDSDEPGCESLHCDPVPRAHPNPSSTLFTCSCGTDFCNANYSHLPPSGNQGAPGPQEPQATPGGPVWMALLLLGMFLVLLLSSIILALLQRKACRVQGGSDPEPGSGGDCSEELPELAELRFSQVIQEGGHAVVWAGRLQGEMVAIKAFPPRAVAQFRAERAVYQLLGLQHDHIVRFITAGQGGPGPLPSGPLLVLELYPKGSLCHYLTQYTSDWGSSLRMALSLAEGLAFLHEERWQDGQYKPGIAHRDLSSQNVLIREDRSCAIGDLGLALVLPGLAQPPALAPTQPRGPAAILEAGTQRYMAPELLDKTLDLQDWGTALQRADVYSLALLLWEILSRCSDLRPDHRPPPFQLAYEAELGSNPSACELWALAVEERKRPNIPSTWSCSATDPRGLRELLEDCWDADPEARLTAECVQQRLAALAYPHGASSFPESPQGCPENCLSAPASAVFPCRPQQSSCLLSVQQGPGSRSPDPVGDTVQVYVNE
Procedure: The suspension was centrifuged to remove debris, the lysates were washed in PBS, and 25 μg of protein from each lysate was loaded into each lane of denaturing SDS-PAGE gels (Bio-Rad). Gels were transferred onto polyvinylidene difluoride (PVDF) membranes (Bio-Rad) and treated with the 4D12G1 mAb at 0.001 μg/ml as primary antibody. In FIG. 2D, a commercially available AMHR2-ED mAb (#sc-377413; Santa Cruz Biotechnology, Dallas, Tex.) at 1.0 μg/ml was used instead of the 4D12G1 mAb as the primary antibody for detecting AMHR2-ED. Western blots of lysates were used to detect capase-3-mediated cleavage of poly (ADP-ribose) polymerase-1 (PARP-1) in AMHR2-OVCAR8 cells treated with increasing concentrations of 4D12G1 mAb (1.0-10 μg/ml) by using a primary rabbit antibody for detection of the intact 116 kDa PARP-1 and its 89 kDa cleaved variant associated with apoptosis (Cell Signaling Technology, Danvers, Mass.). Secondary detection antibodies included treatment with a 1:10,000 dilution of an HRP-conjugated rabbit anti-mouse IgG (MilliporeSigma) or a 1:5,000 dilution of an HRP-conjugated goat anti-rabbit antibody (MilliporeSigma). […]

binding result [1]: binds
binding result [2]: binds
binding result [3]: binds
binding result [4]: binds
binding result [5]: binds
B1: 4D12G1 mAb (antibody, IgG1, V domains shown)
VH: DVKLVESGGGLVKLGGSLKLSCAASGFTFSRYFMSWVRQTPEKRLELVAAINSDGGRTYYPDTVKGRFTISRDNAKNTLYLQMSSLKSEDTALYYCTRHIYSYYEDYFDYWGQGTTLTVSS
VL: DVVMTQTPLSLPVSLGDQASISCRSSQSLVHSNGNTYLHWYLQKPGQSPKLLIYKVSKRFSGVPDRFSGSGSGTDFTLKISRVEAEDLGVYFCSQSTHVYTFGGGTKLEIK
notes: also called 4D12G1 IgG1 mAb
